Series [1] has as its target T1, Dfd (Deformed);Exd (Extradenticle);Hth (Homothorax) (Drosophila melanogaster?;Drosophila …, UniProt P07548;P40427;O46339 1-586;1-376;1-487, ||). Put plainly: EMSA; binding abolished when all sites mutated; 20 mM HEPES pH 7.9, 1.4 mM MgCl2, 1 mM ZnSO4, 40 mM KCl, 0.1 mM EGTA, 5% glycerol, 10 mM DTT, 0.1% NP40, 200 ng poly(dI-dC), 3 ug BSA, 2 pmol Cy5 dsDNA in 30 ul, on ice 20 min; 1% agarose-TBE gel at 4 C. As to conditions: protein: recombinant;recombinant;recombinant; tags: GST (pGEX-6P);His-myc;His-Flag; copies: 1;1;1; label: 5'-Cy5; blunt. On the technique in general: In EMSA bound probe runs differently from free probe, usually more slowly.

Series [2] deals with T1, Dfd (Deformed);Exd (Extradenticle);Hth …. Put plainly: EMSA; 20 mM HEPES pH 7.9, 1.4 mM MgCl2, 1 mM ZnSO4, 40 mM KCl, 0.1 mM EGTA, 5% glycerol, 10 mM DTT, 0.1% NP40, 200 ng poly(dI-dC), 3 ug BSA, 2 pmol Cy5 dsDNA in 30 ul, on ice 20 min; 1% agarose-TBE gel at 4 C. The settings on record: protein: recombinant;recombinant;recombinant; tags: GST (pGEX-6P);His-myc;His-Flag; copies: 1;1;1; label: 5'-Cy5; blunt.

Series [3] addresses T2, Dfd (Deformed);Exd (Extradenticle) (Drosophila melanogaster?;Drosophila …, UniProt P07548;P40427 1-586;1-376, |). Put plainly: EMSA; Hth presence not given; 20 mM HEPES pH 7.9, 1.4 mM MgCl2, 1 mM ZnSO4, 40 mM KCl, 0.1 mM EGTA, 5% glycerol, 10 mM DTT, 0.1% NP40, 200 ng poly(dI-dC), 3 ug BSA, 2 pmol Cy5 dsDNA in 30 ul, on ice 20 min; 1% agarose-TBE gel at 4 C. The settings on record: protein: recombinant;recombinant; tags: GST (pGEX-6P);His-myc; copies: 1;1; label: 5'-Cy5; blunt.

The target in series [4] is T2, Dfd (Deformed);Exd (Extradenticle). Put plainly: EMSA; Hth presence not stated; review file prints 6.85 and 6.65; 20 mM HEPES pH 7.9, 1.4 mM MgCl2, 1 mM ZnSO4, 40 mM KCl, 0.1 mM EGTA, 5% glycerol, 10 mM DTT, 0.1% NP40, 200 ng poly(dI-dC), 3 ug BSA, 2 pmol Cy5 dsDNA in 30 ul, on ice 20 min; 1% agarose-TBE gel at 4 C. As to conditions: protein: recombinant;recombinant; tags: GST (pGEX-6P);His-myc; copies: 1;1; label: 5'-Cy5; blunt.

T2 sequence (P07548 whole entry, chain 1 of 2): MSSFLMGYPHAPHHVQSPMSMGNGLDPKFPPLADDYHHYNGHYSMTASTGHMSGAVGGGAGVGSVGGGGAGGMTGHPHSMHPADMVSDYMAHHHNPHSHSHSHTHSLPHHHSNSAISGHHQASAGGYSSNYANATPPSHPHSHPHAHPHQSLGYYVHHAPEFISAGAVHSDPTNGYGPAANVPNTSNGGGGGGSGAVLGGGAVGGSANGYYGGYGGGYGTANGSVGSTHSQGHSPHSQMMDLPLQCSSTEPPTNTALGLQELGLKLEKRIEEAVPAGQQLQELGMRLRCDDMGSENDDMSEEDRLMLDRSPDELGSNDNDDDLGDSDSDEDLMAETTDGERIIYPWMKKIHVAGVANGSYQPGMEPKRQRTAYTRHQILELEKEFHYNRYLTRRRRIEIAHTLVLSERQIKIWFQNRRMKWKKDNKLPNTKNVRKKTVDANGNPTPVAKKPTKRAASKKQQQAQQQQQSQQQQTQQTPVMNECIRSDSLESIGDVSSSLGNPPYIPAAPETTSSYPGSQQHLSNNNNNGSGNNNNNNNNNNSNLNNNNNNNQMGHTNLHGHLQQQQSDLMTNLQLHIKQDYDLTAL
T2 sequence (P40427 whole entry, chain 2 of 2): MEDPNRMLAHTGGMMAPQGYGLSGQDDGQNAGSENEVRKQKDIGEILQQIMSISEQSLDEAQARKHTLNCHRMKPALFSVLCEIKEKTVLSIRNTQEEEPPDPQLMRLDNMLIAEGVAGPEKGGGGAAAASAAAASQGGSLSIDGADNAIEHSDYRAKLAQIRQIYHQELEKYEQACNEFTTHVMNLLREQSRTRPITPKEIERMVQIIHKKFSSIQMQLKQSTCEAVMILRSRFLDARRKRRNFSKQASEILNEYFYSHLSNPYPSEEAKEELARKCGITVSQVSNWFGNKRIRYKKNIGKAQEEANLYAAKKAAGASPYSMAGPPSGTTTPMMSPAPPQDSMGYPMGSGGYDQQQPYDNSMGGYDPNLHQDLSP
T1 sequence (P07548 whole entry, chain 1 of 3): as the sequence (P07548 whole entry, chain 1 of 2) above
T1 sequence (P40427 whole entry, chain 2 of 3): as the sequence (P40427 whole entry, chain 2 of 2) above
T1 sequence (O46339 whole entry, chain 3 of 3): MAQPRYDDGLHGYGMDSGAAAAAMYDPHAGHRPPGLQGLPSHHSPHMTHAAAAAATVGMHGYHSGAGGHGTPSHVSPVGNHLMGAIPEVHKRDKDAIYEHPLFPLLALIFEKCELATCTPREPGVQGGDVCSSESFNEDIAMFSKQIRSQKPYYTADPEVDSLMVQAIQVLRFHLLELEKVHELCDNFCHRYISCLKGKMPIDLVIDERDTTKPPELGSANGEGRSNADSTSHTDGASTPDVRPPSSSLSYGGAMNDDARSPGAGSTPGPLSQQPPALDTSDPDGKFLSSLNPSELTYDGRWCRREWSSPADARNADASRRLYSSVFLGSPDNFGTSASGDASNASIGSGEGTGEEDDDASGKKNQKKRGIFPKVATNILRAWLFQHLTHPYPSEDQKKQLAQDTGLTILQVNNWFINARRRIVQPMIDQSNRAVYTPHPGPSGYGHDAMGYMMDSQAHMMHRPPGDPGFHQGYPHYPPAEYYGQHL

B1: oligo-B-12-mt (dsDNA)
DNA 1: GACCGCAGAACCAAGCCGCCTATTGCCAGTGAAT
DNA 2: ATTCACTGGCAATAGGCGGCTTGGTTCTGCGGTC
Take B1: the binding result in series [1] is “no binding”.

B2: oligo-A-wt (site 1) (dsDNA)
DNA 1: TCTCAGCCTCGATAATTAACACACAAGCGCGGGG
DNA 2: CCCCGCGCTTGTGTGTTAATTATCGAGGCTGAGA
Regarding B2, the binding result in series [2] is “binds”.

B3: oligo-class-2-site (dsDNA)
DNA 1: TTCAGAGCGAATGATTAATGATCGGTCAAG
DNA 2: CTTGACCGATCATTAATCATTCGCTCTGAA
In general, Kd refers to the equilibrium constant for the complex coming apart. For the molecule B3, the dissociation constant (Kd) in series [3] came out at 9.12 nM.

B4: oligo-E-wt (site 11) (dsDNA)
DNA 1: CTTCTTCGGGCACCTAATGACGCGCGTTCAACAT
DNA 2: ATGTTGAACGCGCGTCATTAGGTGCCCGAAGAAG
Consider B4, for which the binding result in series [2] is given as “binds”. Moreover, in series [3], the equilibrium dissociation constant (Kd) is 16.8 nM.

B5: oligo-D-1-mt (D-9mut-10wt) (dsDNA)
DNA 1: TATAAAAGGCGGCAAATACTAATCTATTCTCGAT
DNA 2: ATCGAGAATAGATTAGTATTTGCCGCCTTTTATA
Turning to B5, the Kd in series [3] was determined as 16.9 nM.

B6: oligo-D-wt (sites 9, 10) (dsDNA)
DNA 1: TATAAAAGCCATTAAATACTAATCTATTCTCGAT
DNA 2: ATCGAGAATAGATTAGTATTTAATGGCTTTTATA
In the case of B6, the binding result in series [2] was “binds”.

B7: oligo-D-1-mt-2-H (D-9mut-10H) (dsDNA)
DNA 1: TATAAAAGGCGGCATTGATTAATTAATTCTCGAT
DNA 2: ATCGAGAATTAATTAATCAATGCCGCCTTTTATA
For the molecule B7, the Kd in series [3] was 8.16 nM.

B8: oligo-E-11-H (dsDNA)
DNA 1: CTTCTTCGGATGATTAATGACGCGCGTTCAACAT
DNA 2: ATGTTGAACGCGCGTCATTAATCATCCGAAGAAG
B8: in series [4], the Kd was 6.7 nM.

These data come from publication PMC9418327, “Specificity of the Hox member Deformed is determined by transcription factor levels and binding site affinities”.
